{
  "source": "the DeepSol protein solubility set",
  "data": [
    {"assay": "soluble on expression in E. coli; label from the status in PepcDB or PDB records", "values": [
      {"sequence": "MNQIDTGLVKRLIREQFPEWAHLEVKPVKFSGHDNRTFQLGDKMSVRLPSDAAYTPQVEKENKWLPILSKELSLPISTPIAKGNPSEAYPWPWSINKWIEGETVTKQNVRDLSEFAAHLGSFLVELQSIDASKGPIAGAHNFYRGGLISVYDEEARDAIENNKDVFDETVLKHLWDLALQSTWRRKPVWIHGDVAPGNLLVKDGKLCAVIDFGILGVGDPACDAAMSWTFFDKSSRKIFKEVLQIDEETWNRARGWALWKALITYDANKISNKIVAEESYRVIQVIVNDYGR", "soluble on expression in E. coli": "not soluble"},
      {"sequence": "MHAVHQLHQYRKSLSTTTYKSRGQRVIRCQLCQLAKPFCICEISPLKENVETTAGFLLLMYDTEVLKPSNTGKLIADLIPDTFAFLWSRTQENPDLLAVINDEKWFPLVVFPQEYADDERKVFTNNVICPEGKRPLFIMLDGSWREAKKMFRKSPYLDRFPMVSFDVKTAIQAVSGNCQSENNSQLSPVGQDSRYTVRKTELEHQFSTAEVAARVLDMHGETTNAHMLDLWFDVFNFQYQKGVCQRNKGNVNAIENYQSFLAKTYRLEHHHHHH", "soluble on expression in E. coli": "not soluble"},
      {"sequence": "SLYIEMVDETGQVSKEMLQQTQEILEFAAQKLGKEDKEMAVTFVTNERSHELNLEYRDTDRPTDVISLEYKPELEIAFDEEDLLENPELAEMMSEFDAYIGELFISIDKAHEQAEEYGHSFEREMGFLAVHGFLHINGYDHYTPEEEAEMFGLQEEILTAYGLTRQ", "soluble on expression in E. coli": "soluble"},
      {"sequence": "MAHHHHHHMNPQTSLTRKQCDFTKLIMAGYDLELNNGSTQDFDVMFHGPNGTAYEGGIWKVHVTLPDDYPFASPSIGFMNKLLHPNVDEASGSVCLDVINQTWTPLYSLVNVFEVFLPQLLTYPNPSDPLNSDAASLLMKDKNIYEEKVKEYVKLYASKDLWEQQKKEKKPSNINGNISPVSELSYVDQDVQDIDLDNL", "soluble on expression in E. coli": "soluble"},
      {"sequence": "AESLSGLSLKLVKKEPRQLELTWAGSRPRNPGGNLSYELHVLNQDEEWHQMVLEPRVLLTKLQPDTTYIVRVRTLTPLGPGPFSPDHEFRTSPP", "soluble on expression in E. coli": "soluble"},
      {"sequence": "MHMQLKGKTALVTGSTAGIGKAIATSLVAEGANVLINGRREENVNETIKEIRAQYPDAILQPVVADLGTEQGCQDVIEKYPKVDILINNLGIFEPVEYFDIPDEDWFKLFEVNIMSGVRLTRSYLKKMIERKEGRVIFIASEAAIMPSQEMAHYSATKTMQLSLSRSLAELTTGTNVTVNTIMPGSTLTEGVETMLNSLYPNEQLTIEEAEKRFMKENRPTSIIQRLIRPEEIAHLVTFLSSPLSSAINGSALRIDGGLVRSVF", "soluble on expression in E. coli": "not soluble"},
      {"sequence": "MDFKHLTQFKDIIELDKRPVKLDERETFNVSWGIDENYQVGAAISIASILENNKQNKFTFHIIADYLDKEYIELLSQLATKYQTVIKLYHIDSEPLKALPQSNIWPVSIYYRLLSFDYFSARLDSLLYLDADIVCKGSLNELIALEFKDEYGAVVIDVDAMQSKSAERLCNEDFNGSYFNSGVMYINLREWLKQRLTEKFFDLLSDESIIKKLKYPDQDILNLMFLHHAKILPRKYNCIYTIKSEFEEKNSEYYTRFINDDTVFIHYTGITKPWHDWANYASADYFRNIYNISPWRNIPYKKAVKKHEYKEKYKHLLYQKKFLDGVFTAIKYNVMKG", "soluble on expression in E. coli": "not soluble"},
      {"sequence": "MGSDKIHHHHHHMPGTAARPAPIRVTYAEVMQRIIGTEVEYGISSPSDPTANPILTSTQAVLAYAAAAGIQRAKRTRWDYEVESPLRDARGFDLSRASGPPPVVDADEVGAANMILTNGARLYVDHAHPEYSAPECTDPLDAVIWDKAGERVMEAAARHVASVPGAAKLQLYKNNVDGKGASYGSHENYLMSRQTPFSAVIAGLTPFLVSRQVVTGSGRVGIGPSGDEPGFQLSQRADYIEVEVGLETTLKRGIINTRDEPHADADKYRRLHVIIGDANLAETSTYLKLGATSLVLDLIEEGMDLSDLALARPVHAVHVISRDPSLRATVAMADGRELTALALQRIYLDRVAKLVDSRDPDPRAAHVVETWAEVLDLLERDPMECAEILDWPAKLRLLEGFRHRENLGWSAPRLHLVDLQYSDVRLDKGLYNRLVARGSMKRLVTEQQVLDAVDSPPTDTRAYFRGECLRRFGADIAAASWDSVIFDLGGDSLVRIPTLEPLRGSKAHVGALLDSVDSAVQLVEQLTAT", "soluble on expression in E. coli": "not soluble"},
      {"sequence": "VLTDIQIAQSCKMKPITQVAAELGIDEEELELYGKYKAKLSDKLWERVKDRPDGKLVLVTAINPTPAGEGKTTTTVGLGQAMARIGKKAVIALREPSLGPVMGIKGGAAGGGYSQVVPMEDINLHFTGDMHAITAANNLLSAAIDNHIQQGNELNIDVRQIIWKRAMDMNDRALRNIVVGLGGKANGVPREDGFQITVASEVMAVLCLSTGLMDLKERLGRILIGYTYDGKPVFAKDLKVNGAMALLLKDAIKPNLVQTLENTPAIVHGGPFANIAHGCNSIVATRLGLKLADYCITEAGFGADLGAEKFFNIKCRYAGLKPDLVVLVATIRALKYNGGVKKENLGIENLPALEKGFVNLEKHIENIRKFQVPLLVAINHFDTDSEAEIEYVKNRCKALNVEVAFSDVFSKGSEGGIELAEKVVKLTETQKSNFKPLYDVNLSIREKIEIIAREIYGADSVNILPAAERAIKKIEELKMDKLPICVAKTQYSLSDDPTLLGRPQGFVITVREIKLSSGAGFIVAITGDIMTMPGLPKVPAAEKIDIDENGVITGLF", "soluble on expression in E. coli": "soluble"},
      {"sequence": "SLGRIKAQAFGFDQTFQSYRKDDFVMAFFKDPNVIPNLKLLSDSSGQWIILGTEVKKIEAINVPCTQLSMSFFHRLYDEDIVRDSGHIVKCLDSFCDPFLISDELRRVLLVEDSEKYEIFSQPDREEFLFCLFKHLCLGGALCQYEDVISPYLETTKLIYKDLVSVRKNPQTKKIQITSSVFKVSAYDSAGMCYPSAKNHEQTFSYFIVDPIRRHLHVLYHCYGVGDMS", "soluble on expression in E. coli": "soluble"},
      {"sequence": "MLGMHFTPVEVFHRYIMPQIRDHLNDYLWVDMFCGEGNLILPMLDYIDRDRRGEFFRDHIMCFDIDESAVERSIENAMKYGIPQEMARRNIRTRDTLMDYPVLSGRYPVFHITNPPYLYLGYIRKRKDARRHQEYFEGQNDGYQDLYQIAMMNDLRHGIGNMIYIIPSNFFFSDAGTRKIREDFLKIYRIGSCYIFERRIFPSTGTNVMILSFQRSQSPVESIEFDAIRINKHEEKKRYVLRSENNFKPDNEYQDYIRAHFRPDHPVVKFYLTYDEIGKNPGNNRVVLVNSKEYRHGEYERETFSVNDDLYARIKSNPLYVRTVDKGTREGRSGIYSIIRDFGADGIFVKGPTYRTSPIQIFIDPPLSANEALKLMEIFNRTLNDLRERSDSDFMTTYKYSDSAAYVRKYLGLKQVRGIMSTISLEDLKDGASSTDL", "soluble on expression in E. coli": "not soluble"},
      {"sequence": "MAAPAQQTTQPGGGKRKGKAQYVLAKRARRCDAGGPRQLEPGLQGILITCNMNERKCVEEAYSLLNEYGDDMYGPEKFTDKDQQPSGSEGEDDDAEAALKKEVGDIKASTEMRLRRFQSVESGANNVVFIRTLGIEPEKLVHHILQDMYKTKKKKTRVILRMLPISGTCKAFLEDMKKYAETFLEPWFKAPNKGTFQIVYKSRNNSHVNREEVIRELAGIVCTLNSENKVDLTNPQYTVVVEIIKAVCCLSVVKDYMLFRKYNLQEVVKSPKDPSQLNSKQGNGKEAKLESADKSDQNNTAEGKNNQQVPENTEELGQTKPTSNPQVVNEGGAKPELASQATEGSKSNENDFS", "soluble on expression in E. coli": "not soluble"},
      {"sequence": "AHHHHHHGSVERKKWSENFSEWFNEVIEEAGILDKRYPVKGMNVWLPYGLKIMKNIEKFIHEEMERTDHQEVLFPALIPETEFQKEAEHIAGFEGEVFWVTHAGHEPLDVRLVLRPTSETAMYSMFALWIRSHADLPFKVYQIVNVYRYETKHTRPLIRVREISRFFEAHTAHADFEDAERQIKEDLEIFDNLMKKLAIAYVISKRPEWDKFPGAYYSLGAEVVMPDGRTLQIGTMHNYKQNFAKAYNILYEKEDGTHDYVHQTTFGMSERLLAAVIAIHGDDRGMVLPPTIAPIQVVIVPIPKKGSEEEVYSYAREIEEELKLAGIRVHLDLRDKRPGWKFYDWELKGVPVRIEVGPRDAAEKTVVLARRDKLEKITVSREELVDKVRELFDDIMQYLYERAKEWLESHIKRVDTIEEAKELFNDRRGIVEIPWCGEEECGLKMEEELEAKMLGIPYPEESARVEGKKCPVCGREAKFIARFARTY", "soluble on expression in E. coli": "not soluble"},
      {"sequence": "MQKRDGHIHTPFCPHGSNDTLRQYAEEALKKGFESITFTEHAPLPPSFTDPTPLKDSAMAQASLERYIHEISGLKKEYRGQLSIRTGLEVDYIAEFEDEITLFLDTYGPYLDDSILSVHFLRTDSSYLCLDYDEHTFKELISACGSIEAVYEQYYRSIYSSIVASLGVYKPKRVGHITLVQKFIKLFPYSMSEHIRGLVSLCLNAIEENGMELDFNTSGLRKTYAGGIYIEDWMLNEAKQKKIPLVFGSDAHQAGDVGYAYEAFLERCLEHHHHHH", "soluble on expression in E. coli": "not soluble"},
      {"sequence": "MDASSGAAADPAEGSAPEGAASGGTGAPNGTDPLDAPNDLGNVPGESAGAGAGAASSGASRSAIMAVTAGGSQGPAVSWGEAADSRSSTWETEGRAAGSLARQAVTRSCSGCGRAGRSGSAEVMRCTTVASESPSKGPRPQAAKTSTEPRENTSLGGPRSVAPRACSGDMKPGVPITEPAAVSAVASTARAMPKSMIRGPSAARITLPGFRSRCTSPQEWMAARPSASPAPSRSTVCSGSGPCASTASCSDGPGT", "soluble on expression in E. coli": "not soluble"},
      {"sequence": "SEKLAASTEPQGPRPVLGRESVQVPDDQDFRSFRSECEAEVGWNLTYSRAGVSVWVQAVEMDRTLHKIKCRMECCDVPAETLYDVLHDIEYRKKWDSNVIETFDIARLTVNADVGYYSWRCPKPLKNRDVITLRSWLPMGADYIIMNYSVKHPKYPPRKDLVRAVSIQTGYLIQSTGPKSCVITYLAQVDPKGSLPKWVVNKSSQFLAPKAMKKMYKACLKYPEWKQKHLPHFKPWLHPEQSPLPSLALSELSVQHADSLENIDESAVAESREERMGGAGGEGSDDDTSLT", "soluble on expression in E. coli": "soluble"},
      {"sequence": "MGHHHHHHSHAFDLTVPTTNQFLLQYLRRQGVCVRTENLAKYVAELSLLEADPFLKYLPSLIAAAAFCLANYTVNKHFWPETLAAFTGYSLSEIVPCLSELHKAYLDIPHRPQQAIREKYKASKYLCVSLMEPPAVLLLQ", "soluble on expression in E. coli": "not soluble"},
      {"sequence": "MTSLLGGNFTEALHTVLSNQLNVMSQKTSDSEAPTTFSSSSSSDSPPYDPMSLVSAGISDQNGLMDMFKDGLFATLVPPTDVANSDTASSESPEPAAQSHEAAEETGGTEEQQAAALSLIQSFGTPIPSKFEDIESQFFSEATIRDLMPVLASVQGSPPHNQNQLSFGSTSSPSAWARNAGRKKSHPVWDFFKDMKDSTGAGGVICLHCSWSGDDRSPNNLRTHLKKFHSDDGIFNRFSEKLAKMARRKQQESTLVIDPSHSKDDSAFFEGSSGSDAPSTIDTTQLMALLEQSAAAAAAAAAASSSENPITSSLLKKDRTTTTTTEKELSPLTAARASEILFAAGMRPHKKTSEIWEHYKCLNEKQNVECIYCWKVLKRNDSSTKSMWGHMNAYHQDILRDGTTRKKVKRPANGLDFDETPTQPYVKRVRGGAGSSSSLPSMVKMDQKPMLDSMAFLQQLQQSGSLTEADFSSFANGSSLNFLDSLPKSSEVININSGFVKKEEMEEDTENHVEAASSSSSDERIKSETPDTYGSPNTSTTDQNEQLAAFVSSLSNSNPMMFAMLNAAGNSTSSAPAPPKSSTSQQRSSSPPSAHDTSNGSMSPSKVDKDPSSFSLSEGHCAAQLMSMALDLEMTMSYHKRRSEIELCFESNRTVDESQGAASRKVICLTDLGKEIKITERINGSVKDTELWVKTDFNQFHWAIRGKCQKSADASRVPPLVVKPRSSRRSPQPVRRRPPGPRDVSSPTHSFLMRWSFLCTL", "soluble on expression in E. coli": "not soluble"},
      {"sequence": "MSGKVVRPSAALLEVFKSWQGGAIRVQRNEKLKTRLDVILDRPEKNNCLSGEMMKQFGEHTELFSDDQNAIIVVSGVGKSFCSGADLGLIKDISDQKLGVQMFEYMSSILSLLHSSPAISIAKIHGHALGGATEICSSTDIRIAHSGSKIAFFQSKMGIVPSWGGAEYMEGIMGRGRALAAMGRANVMSAEEAKDQGYVDYVYKSEDEAENFINQVASAGLKVTRAQKAMLNAVKIGKTEQKQVLEAVWNGETHRNALQKQLEAVVKK", "soluble on expression in E. coli": "not soluble"}
    ]}
  ]
}
